Experimental findings from US20240400638A1, “COMBINATION OF RELAXIN AND VASOPRESSIN ANALOGUES FOR TREATMENT OF RENAL DISORDERS OR CONDITIONS” (River 2 Renal Corp., priority 2021, published 2024) are described below.

Numbered stars: 1 amine (or outer) side, 2 acyl side, 3 side chain; on linkers, the order of the positions; unused ones are H or OH. Square brackets hold non-standard residues; d marks the D form. Side chains are listed from the residue outwards. * marks the point of attachment. TTDS = 4-[3-[2-[2-(3-aminopropoxy)ethoxy]ethoxy]propylamino]-4-oxo-butanoyl; γGlu = O=C(O)[C@H](CCC(=O)[*:2])N[*:1]; Stearoyl = CCCCCCCCCCCCCCCCCC(=O)*; Palmitoyl = CCCCCCCCCCCCCCCC(=O)*; Myristoyl = CCCCCCCCCCCCCC(=O)*; Cit = NC(=O)NCCC[C@H](N)C(=O)O; αMeK = C[C@](N)(CCCCN)C(=O)O; AEEA = NCCOCCOCC(=O)O; Aib = CC(C)(N)C(=O)O

For this assay, the target named is T1, human RXFP1 (human, UniProt Q9HBX9 1-757).
T1 sequence (looked up): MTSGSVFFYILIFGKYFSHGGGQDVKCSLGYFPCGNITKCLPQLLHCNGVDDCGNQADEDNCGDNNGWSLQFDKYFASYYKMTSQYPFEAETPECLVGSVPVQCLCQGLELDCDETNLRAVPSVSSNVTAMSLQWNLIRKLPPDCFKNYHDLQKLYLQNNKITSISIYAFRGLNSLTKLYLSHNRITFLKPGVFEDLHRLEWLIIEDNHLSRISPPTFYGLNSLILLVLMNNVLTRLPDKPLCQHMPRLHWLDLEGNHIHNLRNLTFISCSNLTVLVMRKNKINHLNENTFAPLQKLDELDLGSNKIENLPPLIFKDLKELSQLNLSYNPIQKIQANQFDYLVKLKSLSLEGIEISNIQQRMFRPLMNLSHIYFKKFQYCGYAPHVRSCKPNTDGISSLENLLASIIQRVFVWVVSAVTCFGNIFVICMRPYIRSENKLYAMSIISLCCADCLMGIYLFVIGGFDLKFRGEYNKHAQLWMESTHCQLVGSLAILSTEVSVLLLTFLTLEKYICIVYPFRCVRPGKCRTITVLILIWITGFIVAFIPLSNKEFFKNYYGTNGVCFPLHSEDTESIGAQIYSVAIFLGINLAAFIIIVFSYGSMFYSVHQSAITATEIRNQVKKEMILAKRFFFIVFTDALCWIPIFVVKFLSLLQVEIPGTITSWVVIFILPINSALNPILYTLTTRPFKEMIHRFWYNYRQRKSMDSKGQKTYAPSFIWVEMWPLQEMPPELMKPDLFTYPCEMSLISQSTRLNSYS
Kind of assay: cell-based or functional assay.

B1: Relaxin peptide analogue of SEQ ID NO: 17 (peptide)
peptide: Ac-LEGREKVRAK(Ac)I[Aib][Aib]EGK([TTDS-TTDS-γGlu-γGlu-γGlu-Palmitoyl])STWS[dK]RAK(Ac)-NH2
B1: the “EC50 (nM), OVCAR 5 cells (cAMP)” value is 4.6 nM and the “EMax, OVCAR 5 cells (cAMP)” value amounted to 91%.

B2: Relaxin peptide analogue of SEQ ID NO: 10 (peptide)
peptide: Ac-LEGREKVRAK(Ac)I[Aib][Aib]EGK([TTDS-TTDS-γGlu-γGlu-γGlu-γGlu-Palmitoyl])STFS[αMeK]RAK(Ac)-NH2
For B2, the “EC50 (nM), OVCAR 5 cells (cAMP)” value was determined as 0.79 nM and the “EMax, OVCAR 5 cells (cAMP)” value came to 95%.

B3: Relaxin peptide analogue of SEQ ID NO: 24 (peptide)
peptide: Ac-LEGREFVRAK(Ac)I[Aib][Aib]EGK([TTDS-TTDS-TTDS-γGlu-γGlu-γGlu-Palmitoyl])STFS[αMeK]RAK(Ac)-NH2
Regarding B3, the “EC50 (nM), OVCAR 5 cells (cAMP)” value was 36.4 nM and the “EMax, OVCAR 5 cells (cAMP)” value is 100%.

B4: Relaxin peptide analogue of SEQ ID NO: 23 (peptide)
peptide: Ac-LEGRELVRAK(Ac)I[Aib][Aib]EGK([TTDS-TTDS-TTDS-γGlu-γGlu-γGlu-Palmitoyl])STFS[αMeK]RAK(Ac)-NH2
With B4, the “EC50 (nM), OVCAR 5 cells (cAMP)” value worked out at 11.1 nM and the “EMax, OVCAR 5 cells (cAMP)” value was 92%.

B5: Relaxin peptide analogue of SEQ ID NO: 21 (peptide)
peptide: Ac-LEGREKVRAK(Ac)I[Aib][Aib]EGK([AEEA-AEEA-AEEA-AEEA-γGlu-γGlu-γGlu-Stearoyl])STWS[Aib]RKK(Ac)-NH2
SMILES: CCCCCCCCCCCCCCCCCC(=O)N[C@@H](CCC(=O)N[C@@H](CCC(=O)N[C@@H](CCC(=O)NCCOCCOCC(=O)NCCOCCOCC(=O)NCCOCCOCC(=O)NCCOCCOCC(=O)NCCCC[C@H](NC(=O)CNC(=O)[C@H](CCC(=O)O)NC(=O)C(C)(C)NC(=O)C(C)(C)NC(=O)[C@@H](NC(=O)[C@H](CCCCNC(C)=O)NC(=O)[C@H](C)NC(=O)[C@H](CCCNC(=N)N)NC(=O)[C@@H](NC(=O)[C@H](CCCCN)NC(=O)[C@H](CCC(=O)O)NC(=O)[C@H](CCCNC(=N)N)NC(=O)CNC(=O)[C@H](CCC(=O)O)NC(=O)[C@H](CC(C)C)NC(C)=O)C(C)C)[C@@H](C)CC)C(=O)N[C@@H](CO)C(=O)N[C@H](C(=O)N[C@@H](Cc1c[nH]c2ccccc12)C(=O)N[C@@H](CO)C(=O)NC(C)(C)C(=O)N[C@@H](CCCNC(=N)N)C(=O)N[C@@H](CCCCN)C(=O)N[C@@H](CCCCNC(C)=O)C(N)=O)[C@@H](C)O)C(=O)O)C(=O)O)C(=O)O
Regarding B5, the “EC50 (nM), OVCAR 5 cells (cAMP)” value came out at 0.65 nM and the “EMax, OVCAR 5 cells (cAMP)” value was 93%.

B6: Relaxin peptide analogue of SEQ ID NO: 2 (peptide)
peptide: Ac-LEGREKVRAK(Ac)I[Aib][Aib]EGK([TTDS-TTDS-TTDS-γGlu-γGlu-γGlu-Palmitoyl])STFS[Aib]RAK(Ac)-NH2
B6: the “EC50 (nM), OVCAR 5 cells (cAMP)” value came out at 2.4 nM and the “EMax, OVCAR 5 cells (cAMP)” value amounted to 99%.

B7: Relaxin peptide analogue of SEQ ID NO: 18 (peptide)
peptide: Ac-LEGREKVRAK(Ac)I[Aib][Aib]EGK([TTDS-TTDS-γGlu-γGlu-γGlu-Palmitoyl])STWS[dK]RKK(Ac)-NH2
As to B7, the “EC50 (nM), OVCAR 5 cells (cAMP)” value was determined as 1.54 nM and the “EMax, OVCAR 5 cells (cAMP)” value stood at 92%.

B8: Relaxin peptide analogue of SEQ ID NO: 12 (peptide)
peptide: Ac-LEGREKVRA[Cit]I[Aib][Aib]EGK([TTDS-TTDS-TTDS-γGlu-γGlu-γGlu-Palmitoyl])STFS[αMeK]RAK(Ac)-NH2
Regarding B8, the “EC50 (nM), OVCAR 5 cells (cAMP)” value was found to be 0.93 nM and the “EMax, OVCAR 5 cells (cAMP)” value worked out at 90%.

B9: Relaxin peptide analogue of SEQ ID NO: 16 (peptide)
peptide: Ac-LEGREKVRAK(Ac)I[Aib][Aib]EGK([TTDS-TTDS-γGlu-γGlu-γGlu-Palmitoyl])STFS[dK]RAK(Ac)-NH2
For the molecule B9, the “EC50 (nM), OVCAR 5 cells (cAMP)” value amounted to 6.8 nM and the “EMax, OVCAR 5 cells (cAMP)” value was found to be 88%.

B10: Relaxin peptide analogue of SEQ ID NO: 11 (peptide)
peptide: Ac-LEGREKVRAK(Ac)I[Aib][Aib]EGK([TTDS-TTDS-TTDS-γGlu-γGlu-γGlu-Palmitoyl])STWS[αMeK]RAK(Ac)-NH2
Consider B10, for which the “EC50 (nM), OVCAR 5 cells (cAMP)” value stood at 0.83 nM and the “EMax, OVCAR 5 cells (cAMP)” value came to 93%.

B11: Relaxin peptide analogue of SEQ ID NO: 22 (peptide)
peptide: LEGREKVRAKIXXEGKSTFSKRAK
modifications: Ac-L-E-G-R-E-K-V-R-A-K(Ac)-I-Aib-Aib-E-G-K(PEG2DGA-PEG2DGA-PEG2DGA-gE-gE-gE-Palm)-S-T-F-S-Mly-R-A-K(Ac)-NH2
On to B11, for which the “EC50 (nM), OVCAR 5 cells (cAMP)” value came out at 1 nM and the “EMax, OVCAR 5 cells (cAMP)” value turned out to be 92%.

B12: Relaxin peptide analogue of SEQ ID NO: 15 (peptide)
peptide: Ac-LEGREKVRAK(Ac)I[Aib][Aib]EGK([TTDS-TTDS-TTDS-γGlu-γGlu-γGlu-Palmitoyl])STF[Aib]KRAK(Ac)-NH2
On to B12, for which the “EC50 (nM), OVCAR 5 cells (cAMP)” value came out at 2.1 nM and the “EMax, OVCAR 5 cells (cAMP)” value worked out at 85%.

B13: Relaxin peptide analogue of SEQ ID NO: 14 (peptide)
peptide: Ac-LEGREKVRAK(Ac)I[Aib][Aib]EGK([TTDS-TTDS-TTDS-γGlu-γGlu-γGlu-Palmitoyl])STF[dS]KRAK(Ac)-NH2
For B13, the “EC50 (nM), OVCAR 5 cells (cAMP)” value was 3.2 nM and the “EMax, OVCAR 5 cells (cAMP)” value came to 90%.

B14: Relaxin peptide analogue of SEQ ID NO: 97 (peptide)
peptide: Ac-LEGREKVRAK(Ac)I[Aib][Aib]EGK([TTDS-TTDS-TTDS-γGlu-γGlu-γGlu-γGlu-Myristoyl])STFS[αMeK]RAK-NH2
Take B14: the “EC50 (nM), OVCAR 5 cells (cAMP)” value was 0.29 nM and the “EMax, OVCAR 5 cells (cAMP)” value was 98%.

B15: Relaxin peptide analogue of SEQ ID NO: 19 (peptide)
peptide: Ac-LEGREKVRAK(Ac)I[Aib][Aib]EGK([AEEA-AEEA-AEEA-γGlu-γGlu-γGlu-Palmitoyl])STWS[Aib]RKK(Ac)-NH2
SMILES: CCCCCCCCCCCCCCCC(=O)N[C@@H](CCC(=O)N[C@@H](CCC(=O)N[C@@H](CCC(=O)NCCOCCOCC(=O)NCCOCCOCC(=O)NCCOCCOCC(=O)NCCCC[C@H](NC(=O)CNC(=O)[C@H](CCC(=O)O)NC(=O)C(C)(C)NC(=O)C(C)(C)NC(=O)[C@@H](NC(=O)[C@H](CCCCNC(C)=O)NC(=O)[C@H](C)NC(=O)[C@H](CCCNC(=N)N)NC(=O)[C@@H](NC(=O)[C@H](CCCCN)NC(=O)[C@H](CCC(=O)O)NC(=O)[C@H](CCCNC(=N)N)NC(=O)CNC(=O)[C@H](CCC(=O)O)NC(=O)[C@H](CC(C)C)NC(C)=O)C(C)C)[C@@H](C)CC)C(=O)N[C@@H](CO)C(=O)N[C@H](C(=O)N[C@@H](Cc1c[nH]c2ccccc12)C(=O)N[C@@H](CO)C(=O)NC(C)(C)C(=O)N[C@@H](CCCNC(=N)N)C(=O)N[C@@H](CCCCN)C(=O)N[C@@H](CCCCNC(C)=O)C(N)=O)[C@@H](C)O)C(=O)O)C(=O)O)C(=O)O
Consider B15, for which the “EC50 (nM), OVCAR 5 cells (cAMP)” value came out at 11.5 nM and the “EMax, OVCAR 5 cells (cAMP)” value is 94%.

B16: Relaxin peptide analogue of SEQ ID NO: 13 (peptide)
peptide: Ac-LEGREKVRAK(Ac)I[Aib][Aib]EGK([TTDS-TTDS-TTDS-γGlu-γGlu-γGlu-Palmitoyl])STFSKRAK(Ac)-NH2
For the molecule B16, the “EC50 (nM), OVCAR 5 cells (cAMP)” value was 2.12 nM and the “EMax, OVCAR 5 cells (cAMP)” value worked out at 91%.

B17: Relaxin peptide analogue of SEQ ID NO: 20 (peptide)
peptide: Ac-LEGREKVRAK(Ac)I[Aib][Aib]EGK([TTDS-TTDS-TTDS-γGlu-γGlu-γGlu-Stearoyl])STWS[Aib]RKK(Ac)-NH2
As to B17, the “EC50 (nM), OVCAR 5 cells (cAMP)” value was found to be 0.15 nM and the “EMax, OVCAR 5 cells (cAMP)” value amounted to 96%.
